Reference: patent US20210054042A1 (UNIVERZA V LJUBLJANI, published 2021)
No end group written: not given here.

Legend:
Experiment in all cases: phage ELISA
[1] = target: T1, streptavidin (UniProt P22629 37-163, limits assumed)
T1 construct: Negative control target; also called SA
Protocol: (§1) Wells of a 96-well microplate (Nunc, Maxisorp) were either coated with human Fc fragment solution or streptavidin as negative control. The wells were blocked with BSA and contacted with amplified population of each individual clone. Bound phages were detected by the addition of horseradish peroxidase (HRP)-conjugated anti-M13 monoclonal antibodies using the chromogenic substrate (3,3′,5,5′-tetramethylbenzidine (TMB)) solution, and absorbance at 450 nm was measured.
(§2) The binding activity of phage clone displaying the minimized peptide SEQ ID NO: 2, was further evaluated by phage ELISA (as described above) using different subclasses of native human IgGs and different therapeutic monoclonal antibodies. BSA, avidin and SA were used as targets in negative control wells.

[2] = target: T2, BSA (UniProt P02769 25-607)
T2 construct: Negative control target; also called bovine serum albumin
T2 sequence (P02769 25-607 limits assumed): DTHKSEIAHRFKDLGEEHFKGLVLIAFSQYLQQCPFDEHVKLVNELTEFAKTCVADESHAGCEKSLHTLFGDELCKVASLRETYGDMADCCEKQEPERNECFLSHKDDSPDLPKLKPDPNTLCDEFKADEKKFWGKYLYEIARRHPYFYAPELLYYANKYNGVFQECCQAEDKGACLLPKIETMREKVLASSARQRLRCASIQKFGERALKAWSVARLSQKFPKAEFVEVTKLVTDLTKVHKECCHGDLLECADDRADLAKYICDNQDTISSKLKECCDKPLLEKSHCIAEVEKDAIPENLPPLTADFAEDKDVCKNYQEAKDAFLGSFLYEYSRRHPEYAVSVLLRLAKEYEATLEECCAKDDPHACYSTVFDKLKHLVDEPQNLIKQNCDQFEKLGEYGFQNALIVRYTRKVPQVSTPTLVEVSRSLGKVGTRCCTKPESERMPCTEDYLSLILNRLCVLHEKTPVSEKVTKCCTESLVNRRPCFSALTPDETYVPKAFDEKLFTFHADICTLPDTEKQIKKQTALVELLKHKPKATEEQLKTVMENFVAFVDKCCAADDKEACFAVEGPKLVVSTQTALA
Protocol: as §1, §2

[3] = target: T3, avidin (UniProt P02701 25-152)
T3 construct: Negative control target
T3 sequence (P02701 25-152 limits assumed): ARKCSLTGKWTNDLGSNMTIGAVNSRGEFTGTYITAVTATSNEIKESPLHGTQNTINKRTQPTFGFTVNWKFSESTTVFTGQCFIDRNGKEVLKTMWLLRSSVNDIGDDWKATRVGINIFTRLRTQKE
Protocol: as §1, §2

Measured: binding result

T1 sequence (P22629 37-163 limits assumed): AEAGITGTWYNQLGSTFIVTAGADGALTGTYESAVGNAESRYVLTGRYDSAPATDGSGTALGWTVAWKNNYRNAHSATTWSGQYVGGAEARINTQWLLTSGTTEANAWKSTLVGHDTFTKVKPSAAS

B1: phage clone displaying the minimized peptide SEQ ID NO: 2 (peptide, not shown: large carriers)
peptide: GSYWYQVWF
modifications: also: displayed on phage as P3 coat protein fusion, fusion limits and linker not given here
no binding: all assays above
